Measurements from US20200181259A1.
Where two headings read alike, the source gives them in different places.

Assays:
[1] = molecular target: human CD47 overexpressed on CHO cells (human) (UniProt Q08722); assay: flow cytometry competition on CHO-hCD47 cells against 200 nM mouse Fc-labelled SIRPα
[2] = molecular target: human CD47 overexpressed on CHO cells (human) (UniProt Q08722); assay: as above; remark: listed apart in the source

IC50 [1]: 3.38 nM
IC50 [2]: 1.77 nM
B1: AB6.12, control humanized anti-CD47 antibody transiently expressed in 293 HEK cells (antibody, from another filing, V domains shown)
VH: QMQLVQSGAEVKKTGSSVKVSCKASGFNIKDYYLHWVRQAPGQALEWMGWIDPDQGDTEYAQKFQDRVTITRDRSMSTAYMELSSLRSEDTAMYYCNAAYGSSSYPMDYWGQGTTVTV
VL: NIQMTQSPSAMSASVGDRVTITCKASQDIHRYLSWFQQKPGKVPKHLIYRANRLVSGVPSRFSGSGSGTEFTLTISSLQPEDFATYYCLQYDEFPYTFGGGTKVEIK
